The text below walks through data of patent US20260102461A1 (AIKIUM, published 2026).

In experiment [1] the target is T1, CD74 disordered region peptide (CLIP), PPKPVSKMRMATPLLMQALPMGALP (biotin (position not given)).
T1 peptide: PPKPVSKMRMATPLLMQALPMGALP
Kind of experiment: modified sandwich ELISA, fluorescence grade (key: >400000, Strong binding). For orientation: In an ELISA, binding on a coated surface is turned into a signal by an enzyme label.

In experiment [2] the target is T2, KAAG1 disordered region peptide, PGAAAAHLPRWPPPQLAASRREA (biotin (position not given)).
T2 peptide: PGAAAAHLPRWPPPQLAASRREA
Kind of experiment: modified sandwich ELISA (scaffold coated, biotinylated peptide, streptavidin-HRP fluorescence).

For experiment [3], the target named is T3, CYSLTR2 N-terminal disordered region, MERKFMSLQPSISVSEMEPNGTFSNNNSRNCTIENFKREFFP (biotin (position not given)).
T3 construct: also called CysLT2; CysLT2r
T3 peptide: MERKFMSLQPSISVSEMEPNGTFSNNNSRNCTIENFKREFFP
The description is as above.

The target in a further experiment is T4, MERKFMSLQPSISVSEMEPNG (N-terminal biotin).
T4 construct: First of three overlapping 21-mers of the CYSLTR2 N-terminal disordered region
T4 peptide: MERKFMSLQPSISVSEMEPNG
Kind of experiment: ELISA, scaffold coated on the plate, biotinylated peptide titrated, streptavidin-HRP fluorescence. How it is done: (§1) Binder proteins were coated on the surface of a high binding capacity 96 well plate by incubating 100 μL of protein at […] in a coating solution (10 mM Tris pH 8.8, 50 mM NaCl), overnight at 4 C. The next morning, the coating solution was aspirated out and wells were washed once with 300 μL ELISA wash buffer (lx PBS, 0.05% Tween-20) and solution was aspirated out. The wells were blocked with 200 μL of a blocking buffer (1×PBS, 0.05% Tween-20, 3% BSA) at room temperature for 1 hour. After one hour, the blocking solution was aspirated out and 100 μL of biotinylated polypeptide in a binding buffer (1×PBS, 0.05% Tween-20, 0.5% BSA) at various concentrations was added to the appropriate well and incubated for 20 minutes. Peptide solution was aspirated out after 20 minutes and wells were washed 5 times with 300 μL of ELISA wash buffer. To detect the biotinylated peptide, 100 μL of streptavidin-HRP (50 ng/mL) was added to each well and incubated for 1 hour. The wells were subsequently washed 5 times with 300 μL of ELISA wash buffer. 100 μL of QuantaBlu Fluorogenic Peroxidase substrate solution was added to each well, incubated for 30 minutes and reaction stopped by adding 100 μL of stop solution. Fluorescent signal from each well was measured using a Biotek Cytation5 plate reader by exciting the fluorophore at […] and measuring emission at 420 nm. Fluorescent signals were plotted as a function of polypeptide concentration.

In experiment [4] the target is T2, KAAG1 disordered region peptide, …. Described as above. How it is done: as §1
Experiment [5] addresses T5, CYSLTR2 Epitope SISVSEMEPNGTFSNNNSRNC (N-terminally biotinylated).
T5 peptide: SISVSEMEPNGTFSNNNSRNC
The description is as above. How it is done: as §1

Experiment [6] addresses T1, CD74 disordered region peptide (CLIP), …. Described as above. The method, then:
as §1

The target in experiment [7] is T3, CYSLTR2 N-terminal disordered region, …. Kind of experiment: modified sandwich ELISA (FIGS. 30A and 30B). The method, then: as §1, with “Fluorescent signals were plotted as a function of polypeptide concentration.” left out
Experiment [8] addresses T6, Urotensin-2 receptor (UR-II-R) disordered region, MALTPESPSSFPGLAATGSSVPEPPGGPNATLNSSWASPTEPSSLEDLVATGTI (biotin (position not given)).
T6 construct: also called Urotensin II R; GPCR2 (Urotensin II)
T6 peptide: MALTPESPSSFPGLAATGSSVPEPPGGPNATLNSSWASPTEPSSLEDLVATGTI
Kind of experiment: ELISA, scaffold coated on the plate, biotinylated peptide titrated, streptavidin-HRP fluorescence. The method, then: as §1, with “Fluorescent signals were plotted as a function of polypeptide concentration.” left out

Experiment [9] has as its target T3, CYSLTR2 N-terminal disordered region, …. Kind of experiment: ELISA fluorescence at 10,000 nM peptide divided by the no-scaffold control; the control bar is marked 1x. The method, then: as §1
Experiment [10] concerns the target 25 amino acid epitope of CLIP (CD74). Kind of experiment: BLI (Octet), biotinylated peptide on streptavidin tip, scaffold in solution. (Biolayer interferometry detects binding as a change in optical thickness at a sensor tip.)
Experiment [11] has as its target T6, Urotensin-2 receptor (UR-II-R) …. Kind of experiment: modified sandwich ELISA (scaffold coated, biotinylated peptide, streptavidin-HRP fluorescence).
In experiment [12] the target is T5, CYSLTR2 Epitope SISVSEMEPNGTFSNNNSRNC
Kind of experiment: ELISA, scaffold coated on the plate, biotinylated peptide titrated, streptavidin-HRP fluorescence.

Experiment [13] concerns the target T7, TNFRSF13B disordered region peptide, LPPELRRQRSGEVENNSDNSGRYQ (biotin (position not given)).
T7 peptide: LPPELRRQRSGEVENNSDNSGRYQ
The description is as above. How it is done: as §1

Experiment [14] has as its target T8, KCNA6 Epitope QQQEQQPASGGGGQNGQQAMS (biotin (position not given)).
T8 peptide: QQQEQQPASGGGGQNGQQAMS
The experiment is described as above. The method, then:
as §1

Experiment [15] addresses T9, GMERKFMSLQPSISVSEMEPNGTFSNNNSRNCTIENFKREFFP (biotinylated, position not given).
T9 peptide: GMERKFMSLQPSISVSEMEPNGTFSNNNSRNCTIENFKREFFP
The experiment is described as above. How it is done:
as §1

Experiment [16] deals with T10, CD40LG Epitope NKEETKKENSFEMQKGDQNPQIAAH (biotin (position not given)).
T10 peptide: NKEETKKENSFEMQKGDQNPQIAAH
The experiment is described as above. The method, then:
as §1

The target in experiment [17] is T2, KAAG1 disordered region peptide, …. Put plainly: modified sandwich ELISA (scaffold coated, biotinylated peptide, streptavidin-HRP fluorescence).
Experiment [18] has the same target. Kind of experiment: modified sandwich ELISA, fluorescence grade (key: 50000 < x < 100000, Weak binding).
Experiment [19] deals with T3, CYSLTR2 N-terminal disordered region, …. Described as above.

Like-named read-outs stand apart in the source and are kept apart here. Bounds are passed on as bounds.

B1: S084 (designed binder)
chain: IKEEHVIQQSEYYTNPDQSGEFQFDFDGDEIFHVDMAKKETVWRLEEFGRFASFEAQGALANIAVDKANLEIMTKRSNYTGDTRPRFNWQLKFECHFFNGTERVRLLERCNYNQEESVRFDSDVGEYRAVTELGRPDAEYWNSQKDLLEQRRAAVDTYCRHNYGVGESFTVQRRGGSHHHHHHLE
Molecule B1 displayed a fluorescent signal in experiment [1] of more than 400000 fluorescentsignal. Further, the binding result in experiment [2] was “no binding (tested: <5000 (fluorescence signal, key))”; in experiment [3], “no binding (tested: <5000 (fluorescence signal, key))”.

B2: S090 (designed binder)
chain: IKEEHSIRQNEMYLNPDQSGLFEFHLDGQPIFRVDMQKKRTKWQLEEFGRFASFEAQGALANIAVDKANLEIMTKRSNQSEAGSHSWQLIFVCEFHEGTESVRLSERCYYNQELSVSFNSDVGEYRAVTELGRPDAEYWNSQKDLLEQRRAAVDTYCRHNYGVGESFTVQRRGGSHHHHHHLE
notes: Rationally designed from v1.1 (S005); By SEC it is a mixture of monomers, dimers and multimers, at least 50% monomer; also called v1.2; scaffold v1.2
As usually defined, the EC50 (read off the curve) is the concentration giving half of the maximal effect. On to B2, for which the binding result with MERKFMSLQPSISVSEMEPNG is “no binding (tested: 10000 nM)”; in [4] it was “binds”; in experiment [5], “binds”; in experiment [8] it was “binds”. Besides, the “EC50 (read off the curve)” value in experiment [6] was approximately 500 nM. Moreover, in experiment [7], the “fold higher affinity compared to a non-specific protein binder” value is more than 65 fold. In experiment [9], the “Relative Binding” value amounted to 37.2 x. Besides, the “Relative Binding (Fold Change)” value in experiment [9] came to 37.2 x.

B3: S005 (designed binder)
chain: MIKEEHVIIQAEFYLNPDQSGEFMFDFDGDEIFHVDMAKKETVWRLEEFGRFASFEAQGALANIAVDKANLEIMTKRSNYTPMGDTRPRFLWQLKFECHFFNGTERVRLLERCIYNQEESVRFDSDVGEYRAVTELGRPDAEYWNSQKDLLEQRRAAVDTYCRHNYGVGESFTVQGGSHHHHHHLE
notes: Engineered scaffold derived from MHC II; derived from S007 by removing the immunoglobulin unit; also called v1.1; scaffold v1.1
For orientation: Kd means the concentration at which binding is half-saturated. B3: binding in experiment [10] was put at a Kd of 840 nM. The binding result is reported as “binds” in experiment [4]; “no binding (tested: <5000 (fluorescence signal, key))” in experiment [11]; “binds” in [12]. Moreover, the “EC50 (read off the curve)” value in experiment [6] is approximately 300 nM. Besides, the “Relative Binding” value in experiment [9] was determined as 18.5 x. The “Relative Binding (Fold Change)” value in [9] turned out to be 18.5 x.

B4: S177 (designed binder)
chain: MIKEEHVINQAEYYLNPDQSGEFKFDFDGDEIFHVDMAKKETVWRLEEFGRFASFEAQGALAHIAVDKANLEIMTKRSNYTPMGDTRPRFLWQLKYECHFFNGTERVRLNERCIYNQEESVRFDSDVGEYRAVTELGRPDAEQWNSQKDHLEQRRAAVDTKCRHNYGVGESFTVQGGSHHHHHHLE
notes: Computationally derived from S005; 21.92 kDa
As to B4, the binding result was “no binding (tested: 10000 nM)” in [13]; “no binding (tested: 10000 nM)” with MERKFMSLQPSISVSEMEPNG; “no binding (tested: 10000 nM)” in experiment [14]; “no binding (tested: 10000 nM)” in experiment [4]; “binds” in experiment [15]; “no binding (tested: 10000 nM)” in [16]. Besides, the binding result in [5] is given as “binds”.

B5: S098 (designed binder)
chain: PENYLFQGRQECNGTQFLERYIYNREEFVRFDEFRAVGRPDEEYWNSQKDILEEERAVPDRMCRHNYELGGPMTLQRRVQPRVNIKADHVSTYAAFVQRPFMFEFDEDEMFYVDLHLEEFGQAFSFEAQGGLANIAILNNNLNTRSNHTQATNDPPHHHHHHLE
In the case of B5, the binding result in [17] was “no binding (tested: <5000 (fluorescence signal, key))”; in experiment [11], “no binding (tested: <5000 (fluorescence signal, key))”.

B6: S055 (designed binder)
chain: GSHSMRYNYTSVSRPGRGEPRFLSEGHVDDTQFVRFDSDAASPREEPRAPWIEQEGPEYWDRNTQIYKAQAQTDRESLRNLRGYYNQSEAGSHTLQSIYGCDVGPDGRLLRGHDQYYYDGKDYISLNEDLRSWTAADTAAQITQRKWEAAREAEQRRAYLEGECVEWLRRYLENGKDKLERADGGSHHHHHHLE
For the molecule B6, the fluorescent signal in experiment [18] was 50000 to 100000 fluorescentsignal; in experiment [1], more than 400000 fluorescentsignal.

B7: S056 (designed binder)
chain: GSHSMRYNYTSVSRPGRGEPRFLSEGHVDGQPFVRFDSDAASPREEPRAPWIEQEGPEYWDRNTQIYKAQAQTDRESLRNLRGYYNQSEAGLHSLNSIYVCDVGPDGRLLRGHDHYYYDGELYISLNEDLRSWTAADTAAQITQRKWEAAREAEQRRAYLEGECVEWLRRYLENGKDKLERADGGSHHHHHHLE
Take B7: the fluorescent signal in experiment [18] was 50000 to 100000 fluorescentsignal; in experiment [1], more than 400000 fluorescentsignal.

B8: S078 (designed binder)
chain: GDTRPRFLWQLKFECHFFNGTERVRLLERCIYNQEESVRFDSDVGEYRAVTELGRPDAEYWNSQKDLLEQRRAAVDTYCRHNYGVGESFTVQRRSGGGIKEEHVIIQAEFYLNPDQSGEFMFDFDGDEIFHVDMAKKETVWRLEEFGRFASFEAQGALANIAVDKANLEIMTKRSNYTGGSHHHHHHLE
B8: the fluorescent signal was 50000 to 100000 fluorescentsignal in experiment [19] and more than 400000 fluorescentsignal in experiment [1]. In addition, the binding result in [2] was “no binding (tested: <5000 (fluorescence signal, key))”.
